Results reported in US20220275390A1, “RUBISCO-BINDING PROTEIN MOTIFS AND USES THEREOF” (The Trustees of Princeton University, priority 2019, published 2022).

What was measured:
EPYC1 = experiment: Yeast two-hybrid assay of EPYC1 with Rubisco SSU variants; type: cell-based, Chlamydomonas reinhardtii; conditions: growth on SD-L-W-H with 3-AT, three days, FIGS. 9A-9C
Description: FIGS. 9A-9C show the results of a yeast two-hybrid (Y2H) assay to measure the interaction between EPYC1 and Rubisco SSU variants. […] The images shown were taken following three days of cell growth. The Rubisco SSU residues that form salt bridges with EPYC1 residues are bolded (D23, E24, and R91) and the residues that form the hydrophobic pocket with EPYC1 residues are bolded and italicized (M87 and V94). The “Control” images were taken from cells grown for three days on SD-L-W media and the “Test” images were taken from cells grown for three days on SD-L-W-H with 3-AT. Growth of yeast cells expressing the indicated EPYC1 and Rubisco SSU variants was measured after three days on SD-L-W-H with varying 3-AT concentrations. The highest concentration of 3-AT (0, 1, 2.5, 5, 10, and 20 mM) permissive for the growth of each EPYC1 and Rubisco SSU variant combination is shown, as indicated in the “Key” on the right.
Mutagenesis of EPYC1, Mutagenesis of Rubisco, Yeast Two-hybrid, Peptide Arrays and SPR Assays To determine the importance of individual EPYC1 residues for binding to Rubisco, the impact on Rubisco binding of every possible single amino acid substitution for EPYC1 RBM 2 was determined (FIG. 8). To determine the importance of individual Rubisco residues for binding to EPYC1, targeted mutations of the amino acids identified from atomic modeling were tested in a yeast two-hybrid assay as in van Nues and Beggs (Genetics 157: 1451-1467, 2000). Peptide arrays and SPR assays were performed as in Example 1.

C. reinhardtii cells = experiment: Confocal fluorescence microscopy localization of Venus fusion proteins; type: cell-based, Chlamydomonas reinhardtii; conditions: Venus fluorescence in C. reinhardtii cells
Description: A synthetic […] (Invitrogen) containing a 643 bp restriction fragment containing the C-terminus of Venus, followed by the sequence coding for the FLAG-tag sequence, and a sequence coding for three repetitions of the 15 C-terminal amino acids of SAGA2, was cloned into pLM005-FDX1, after restriction digestion with EcoRl and PfIMI. GenBank accession number of the empty pLM005 is KX077945.1. The plasmid pLM005-FDX1 is identical to pLM005 with the genomic sequence of FDX1 cloned in frame by Gibson Assembly (Mackinder et al., PNAS 113: 5958-5963, 2015) between residues 2698 and 3234. The terminal 85 amino acids of resultant mature fusion protein, immediately downstream of the FLAG-tag, were a 5 aa linker (GGGGS; SEQ ID NO: 87), a first copy of SAGA2 15 C-terminal aa, followed by a 10 aa linker (2X GGGGS; SEQ ID NO: 88), a second copy of SAGA2 15 last aa, another 10 aa linker (2X GGGGS; SEQ ID NO: 88), and finally a third copy of SAGA2 15 last aa. The sequence of the EcoRI-PfIMI digestion fragment (SEQ ID NO: 89) was cloned in frame into pLM005-FDX1.
Culturing and Transformation of C. reinhardtii: Culturing and transformation of C. reinhardtii for fluorescence localization of protein and imaging was performed as described in Mackinder et al. (PNAS 113: 5958-5963, 2015). […]

Molecule	Rubisco SSU-EPYC1 interaction (EPYC1)	localization pattern within the pyrenoid (C. reinhardtii cells; FIG. 15)	localization (C. reinhardtii cells; FIGS. 14B and 15)
D23A: C. reinhardtii Rubisco SSU with mutation D23A (protein, left off: small tags and cut ends) MMVWTPVNNKMFETFSYLPPLTAEQIAAQVDYIVANGWIPCLEFAEADKAYVSNESAIRFGSVSCLYYDNRYWTMWKLPMFGCRDPMQVLREIVACTKAFPDAYVRLVAFDNQKQVQIMGFLVQRPKTARDFQPANKRSV	severe impact	–	–
M87D: C. reinhardtii Rubisco SSU with mutation M87D (protein, UniProt P00873 46-185, looked up, variant M87D) Ribulose bisphosphate …: MMVWTPVNNKMFETFSYLPPLTDEQIAAQVDYIVANGWIPCLEFAEADKAYVSNESAIRFGSVSCLYYDNRYWTMWKLPMFGCRDPDQVLREIVACTKAFPDAYVRLVAFDNQKQVQIMGFLVQRPKTARDFQPANKRSV	severe impact	–	–
R91A: C. reinhardtii Rubisco SSU with mutation R91A (protein, UniProt P00873 46-185, looked up, variant R91A) Ribulose bisphosphate …: MMVWTPVNNKMFETFSYLPPLTDEQIAAQVDYIVANGWIPCLEFAEADKAYVSNESAIRFGSVSCLYYDNRYWTMWKLPMFGCRDPMQVLAEIVACTKAFPDAYVRLVAFDNQKQVQIMGFLVQRPKTARDFQPANKRSV	moderate defect	–	–
E24A: C. reinhardtii Rubisco SSU with mutation E24A (protein, UniProt P00873 46-185, looked up, variant E24A) Ribulose bisphosphate …: MMVWTPVNNKMFETFSYLPPLTDAQIAAQVDYIVANGWIPCLEFAEADKAYVSNESAIRFGSVSCLYYDNRYWTMWKLPMFGCRDPMQVLREIVACTKAFPDAYVRLVAFDNQKQVQIMGFLVQRPKTARDFQPANKRSV	moderate defect	–	–
V94D: C. reinhardtii Rubisco SSU with mutation V94D (protein, UniProt P00873 46-185, looked up, variant V94D) Ribulose bisphosphate …: MMVWTPVNNKMFETFSYLPPLTDEQIAAQVDYIVANGWIPCLEFAEADKAYVSNESAIRFGSVSCLYYDNRYWTMWKLPMFGCRDPMQVLREIDACTKAFPDAYVRLVAFDNQKQVQIMGFLVQRPKTARDFQPANKRSV	severe impact	–	–
RBM P1-Venus: Rubisco-Binding Membrane Protein 1 (SEQ ID NO: 1) fused to the Venus fluorescent protein (protein) MQCQLKHGARPQSQRPNWLPARAATLRPAVQHGVRRGLTLGVKAAAAPLEDKKMPADMTTRQYRRVVYDFALWAKHRDVNRYLYNLRTIPGSRIIRQLSQPMGVVLAWAALFGFYETCLEAGVLPSYLPKMTLMSAEPQGLTSFALSLLLVFRTNSSYGRFDEARKIWGGILNRARNIANQAVTFIPAEDQAGREAVGKWTVGFTRALQAHLQEDIDLRKELEKATPRWSKEEIDMLVNAQHRPIKAISVLSELTRQLSITQFQALQMQENCTFFYDALGGCERLLRTPIPVSYTRHTARFLTIWLAMLPLGLWERYHWSMLPVIALIGFLLLGIDEIGISIEEPFGILPLDAICGRAQTDVNSLLKEDPAVMKYVDDVRSGRVKSPPPLPPAPAAPAAAAAAAAAAARSVSPQPDVAKTLGSLFTNVRAGVGAVAPGAPLMPQAPVRSPSPTRSVSPSFPRASAGTGMPPPVGMNGATPRVAAAPPTPPPVSRPAAPAAAPAAGSGFTMPNFSASLSGLTGGAAAAAKSAADAASSKLTKMADSMSSGAAAPAPPAAPARPSTSPRPSASSPISSSADADRSDSSRRPVNWRDELQSLKATREPNGNGNGSGVAPAAGRADADEEALRRFGNLAGRSRSGNGGGGSSDTELSEANRPRTRPDWRNQL	–	limited to an inner sphere of the Rubisco matrix	localized to the pyrenoid
